Data on three molecules can be found in US20050287608A1.

Test [1] addresses ubiquitinated proteins of yeast cells. As to the kind of experiment: Flag purification from yeast cells, anti-Ub immunoblot. A general note: Immunoblotting shows a protein as a band on a membrane.
The target is the same in test [2]. The experiment in a line: Flag-Rad23 precipitation from yeast extracts, anti-Ub immunoblot, adjusted for the amount of Flag-Rad23 precipitated.

Substitutions are numbered along the chain they refer to. Names and notes keep the numbering of the source.

B1: Flag-rad23^uba2 (yeast Rad23 L392A, amino-terminal Flag epitope) (protein, yeast (Saccharomyces cerevisiae), UniProt P32628 1-398, looked up, not shown: small tags and cut ends)
chain: MVSLTFKNFKKEKVPLDLEPSNTILETKTKLAQSISCEESQIKLIYSGKVLQDSKTVSECGLKDGDQVVFMVSQKKSTKTKVTEPPIAPESATTPGRENSTEASPSTDASAAPAATAPEGSQPQEEQTATTERTESASTPGFVVGTERNETIERIMEMGYQREEVERALRAAFNNPDRAVEYLLMGIPENLRQPEPQQQTAAAAEQPSTAATTAEQPAEDDLFAQAAQGGNASSGALGTTGGATDAAQGGPPGSIGLTVEDLLSLRQVVSGNPEALAPLLENISARYPQLREHIMANPEVFVSMLLEAVGDNMQDVMEGADDMVEGEDIEVTGEAAAAGLGQGEGEGSFQVDYTPEDDQAISRLCELGFERDLVIQVYFACDKNEEAAANIAFSDHAD
In turn, B1 yielded a decrease of binding, against Flag-Rad23 in test [1] of 20%.

B2: Flag-Rad23 (yeast Rad23 with an amino-terminal Flag epitope) (protein, yeast (Saccharomyces cerevisiae), UniProt P32628 1-398, looked up, not shown: small tags and cut ends)
chain: B1 chain with A392L
Turning to B2, the fold increase of the interaction after treatment with 4-NQO, against untreated cells in test [2] stood at 2 fold.

B3: Flag-rad23^uba1uba2 (yeast Rad23 with mutations in both UBA domains, amino-terminal Flag epitope) (protein, yeast (Saccharomyces cerevisiae), UniProt P32628 1-398, looked up, not shown: small tags and cut ends)
chain: B1 chain with L183A
In test [1], B3 returned an interaction remaining, compared to the wildtype protein of 1%.
